Source: the supplement of paper PMC10065799, “High-throughput profiling of sequence recognition by tyrosine kinases and SH2 domains using bacterial peptide display” (eLife, 2023)

Legend:
Hck = Hck (UniProt P08631); test: phosphorylation enrichment, bacterial display (enrichment ratio); higher = better substrate or ligand; peptides without Tyr show the background
AncSZ = test: as above
c-Abl (mouse) = test: as above
FGFR3 = FGFR3 (UniProt P22607); test: as above
Fer (mouse) = test: as above
Fyn = Fyn (UniProt P06241); test: as above
Sequence of Fyn (P06241 whole entry, looked up): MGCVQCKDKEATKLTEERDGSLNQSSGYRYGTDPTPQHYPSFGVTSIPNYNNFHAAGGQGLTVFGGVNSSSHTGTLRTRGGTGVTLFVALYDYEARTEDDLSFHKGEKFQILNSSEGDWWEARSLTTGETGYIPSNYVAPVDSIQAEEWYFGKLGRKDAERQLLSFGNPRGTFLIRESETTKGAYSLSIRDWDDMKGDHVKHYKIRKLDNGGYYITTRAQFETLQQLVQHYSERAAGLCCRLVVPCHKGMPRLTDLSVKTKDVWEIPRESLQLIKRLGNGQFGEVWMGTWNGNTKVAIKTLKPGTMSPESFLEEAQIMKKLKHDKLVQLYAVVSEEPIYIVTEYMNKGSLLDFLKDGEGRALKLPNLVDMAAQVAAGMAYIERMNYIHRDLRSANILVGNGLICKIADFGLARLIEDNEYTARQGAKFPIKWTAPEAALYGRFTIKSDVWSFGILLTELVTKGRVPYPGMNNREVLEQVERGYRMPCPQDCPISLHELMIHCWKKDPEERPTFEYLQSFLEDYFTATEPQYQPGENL

Jak2 = Jak2 (UniProt O60674); test: as above
MERTK = MERTK (UniProt Q12866); test: as above
Sequence of MERTK (Q12866 whole entry, looked up): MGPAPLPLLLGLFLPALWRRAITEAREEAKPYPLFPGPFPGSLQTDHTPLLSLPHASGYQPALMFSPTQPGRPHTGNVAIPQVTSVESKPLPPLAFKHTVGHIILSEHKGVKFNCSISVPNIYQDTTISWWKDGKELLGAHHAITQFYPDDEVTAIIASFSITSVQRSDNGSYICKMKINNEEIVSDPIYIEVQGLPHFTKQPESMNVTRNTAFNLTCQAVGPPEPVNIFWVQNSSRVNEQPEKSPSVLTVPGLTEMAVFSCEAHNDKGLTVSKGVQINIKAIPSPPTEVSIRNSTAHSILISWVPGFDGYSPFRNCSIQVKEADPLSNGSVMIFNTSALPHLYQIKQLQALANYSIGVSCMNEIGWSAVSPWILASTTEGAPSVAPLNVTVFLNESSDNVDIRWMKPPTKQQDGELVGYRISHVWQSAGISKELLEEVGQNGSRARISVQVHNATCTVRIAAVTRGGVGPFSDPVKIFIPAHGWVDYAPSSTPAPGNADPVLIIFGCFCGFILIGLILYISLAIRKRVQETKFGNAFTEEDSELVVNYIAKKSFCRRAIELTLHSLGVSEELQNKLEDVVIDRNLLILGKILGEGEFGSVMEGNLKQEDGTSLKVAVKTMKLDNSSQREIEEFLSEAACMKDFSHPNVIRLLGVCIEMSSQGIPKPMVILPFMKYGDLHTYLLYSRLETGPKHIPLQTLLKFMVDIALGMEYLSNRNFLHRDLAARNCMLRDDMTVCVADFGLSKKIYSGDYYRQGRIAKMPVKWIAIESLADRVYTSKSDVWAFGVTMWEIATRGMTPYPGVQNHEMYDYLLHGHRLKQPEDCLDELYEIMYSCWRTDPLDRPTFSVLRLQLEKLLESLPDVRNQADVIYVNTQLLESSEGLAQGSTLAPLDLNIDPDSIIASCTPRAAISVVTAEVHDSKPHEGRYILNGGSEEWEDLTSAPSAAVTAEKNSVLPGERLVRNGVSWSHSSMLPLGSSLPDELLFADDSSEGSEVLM

FGFR1 = FGFR1 (UniProt P11362); test: as above
Sequence of FGFR1 (P11362 whole entry, looked up): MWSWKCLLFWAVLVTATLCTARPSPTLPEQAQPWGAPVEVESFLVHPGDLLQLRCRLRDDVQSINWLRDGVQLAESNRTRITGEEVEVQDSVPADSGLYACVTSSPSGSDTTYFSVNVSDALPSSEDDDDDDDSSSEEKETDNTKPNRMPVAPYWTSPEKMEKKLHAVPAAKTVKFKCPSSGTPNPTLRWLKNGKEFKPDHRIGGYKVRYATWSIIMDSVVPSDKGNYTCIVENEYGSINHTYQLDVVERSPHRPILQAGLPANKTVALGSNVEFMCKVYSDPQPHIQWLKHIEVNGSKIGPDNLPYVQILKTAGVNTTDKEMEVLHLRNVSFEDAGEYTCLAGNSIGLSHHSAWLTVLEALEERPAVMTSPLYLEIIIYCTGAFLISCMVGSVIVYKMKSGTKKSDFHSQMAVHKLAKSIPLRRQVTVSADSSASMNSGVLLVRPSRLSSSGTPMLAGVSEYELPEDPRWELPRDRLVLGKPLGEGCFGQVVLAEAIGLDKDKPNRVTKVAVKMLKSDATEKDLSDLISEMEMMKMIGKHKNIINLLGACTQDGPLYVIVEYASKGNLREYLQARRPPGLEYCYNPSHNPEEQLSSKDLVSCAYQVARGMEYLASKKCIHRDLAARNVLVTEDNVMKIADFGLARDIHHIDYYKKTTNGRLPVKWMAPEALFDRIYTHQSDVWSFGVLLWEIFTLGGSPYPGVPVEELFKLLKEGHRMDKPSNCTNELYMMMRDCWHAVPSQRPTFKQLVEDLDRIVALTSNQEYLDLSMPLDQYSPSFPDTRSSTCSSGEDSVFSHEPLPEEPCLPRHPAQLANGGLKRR

EPHB1 = EPHB1 (UniProt P54762); test: as above
c-Src = test: as above
EPHB2 = EPHB2 (UniProt P29323); test: as above
Sequence of EPHB2 (P29323 whole entry, looked up): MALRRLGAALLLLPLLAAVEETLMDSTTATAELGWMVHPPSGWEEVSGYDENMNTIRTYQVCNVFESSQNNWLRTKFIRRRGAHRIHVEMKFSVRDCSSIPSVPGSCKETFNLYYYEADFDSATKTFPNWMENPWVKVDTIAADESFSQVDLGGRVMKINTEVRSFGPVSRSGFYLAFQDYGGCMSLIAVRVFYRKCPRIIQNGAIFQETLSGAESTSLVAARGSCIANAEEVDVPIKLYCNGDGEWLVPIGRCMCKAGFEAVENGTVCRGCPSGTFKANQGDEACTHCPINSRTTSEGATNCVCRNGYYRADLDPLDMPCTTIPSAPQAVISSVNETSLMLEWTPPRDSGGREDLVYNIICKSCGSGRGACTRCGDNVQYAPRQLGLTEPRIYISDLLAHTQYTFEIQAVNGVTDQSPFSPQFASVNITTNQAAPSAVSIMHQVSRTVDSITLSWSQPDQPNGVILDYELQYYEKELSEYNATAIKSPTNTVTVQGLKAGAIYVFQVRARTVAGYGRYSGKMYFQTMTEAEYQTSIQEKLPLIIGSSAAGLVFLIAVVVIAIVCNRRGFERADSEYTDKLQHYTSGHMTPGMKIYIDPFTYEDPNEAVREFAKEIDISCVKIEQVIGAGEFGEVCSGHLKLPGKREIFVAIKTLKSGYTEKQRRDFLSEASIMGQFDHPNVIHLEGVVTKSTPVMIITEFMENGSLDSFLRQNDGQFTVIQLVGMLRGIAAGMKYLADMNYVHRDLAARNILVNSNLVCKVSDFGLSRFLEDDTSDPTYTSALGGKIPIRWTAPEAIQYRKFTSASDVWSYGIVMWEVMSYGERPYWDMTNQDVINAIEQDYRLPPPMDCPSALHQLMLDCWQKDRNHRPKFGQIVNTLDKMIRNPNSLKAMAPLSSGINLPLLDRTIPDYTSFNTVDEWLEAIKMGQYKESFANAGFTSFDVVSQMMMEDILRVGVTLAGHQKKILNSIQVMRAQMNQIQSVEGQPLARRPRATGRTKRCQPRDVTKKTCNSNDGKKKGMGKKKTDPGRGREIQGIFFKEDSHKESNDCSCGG

Fes = Fes (UniProt P07332); test: as above
Sequence of Fes (P07332 whole entry, looked up): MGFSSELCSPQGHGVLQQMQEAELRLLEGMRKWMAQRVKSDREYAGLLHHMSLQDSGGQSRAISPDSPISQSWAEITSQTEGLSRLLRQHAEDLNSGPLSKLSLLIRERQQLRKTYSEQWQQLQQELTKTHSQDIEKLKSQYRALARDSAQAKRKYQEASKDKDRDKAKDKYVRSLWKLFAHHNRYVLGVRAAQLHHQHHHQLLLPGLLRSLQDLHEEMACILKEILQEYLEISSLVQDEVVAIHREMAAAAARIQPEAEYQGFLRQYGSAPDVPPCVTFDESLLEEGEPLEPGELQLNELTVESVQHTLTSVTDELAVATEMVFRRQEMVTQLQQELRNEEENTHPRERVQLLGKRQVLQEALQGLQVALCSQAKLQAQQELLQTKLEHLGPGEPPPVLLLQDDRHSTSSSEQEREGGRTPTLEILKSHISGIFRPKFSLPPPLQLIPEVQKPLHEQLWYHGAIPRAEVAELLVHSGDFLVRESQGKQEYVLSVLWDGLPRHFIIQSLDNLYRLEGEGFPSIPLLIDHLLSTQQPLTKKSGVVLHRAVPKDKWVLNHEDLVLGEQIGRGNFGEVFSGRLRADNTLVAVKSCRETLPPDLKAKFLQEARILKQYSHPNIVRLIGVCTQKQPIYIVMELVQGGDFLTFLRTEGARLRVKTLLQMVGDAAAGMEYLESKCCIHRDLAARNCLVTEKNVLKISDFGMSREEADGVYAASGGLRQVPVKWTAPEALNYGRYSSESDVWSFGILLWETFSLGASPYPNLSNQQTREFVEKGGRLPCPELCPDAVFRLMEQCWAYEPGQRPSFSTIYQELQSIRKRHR

SHP2-C SH2 = test: SH2 binding enrichment of the phosphorylated peptide, bacterial display (enrichment ratio); higher = better substrate or ligand; peptides without Tyr show the background
Grb2 SH2 = Grb2 SH2 (UniProt P62993); test: as above
Sequence of Grb2 SH2 (P62993 whole entry, looked up): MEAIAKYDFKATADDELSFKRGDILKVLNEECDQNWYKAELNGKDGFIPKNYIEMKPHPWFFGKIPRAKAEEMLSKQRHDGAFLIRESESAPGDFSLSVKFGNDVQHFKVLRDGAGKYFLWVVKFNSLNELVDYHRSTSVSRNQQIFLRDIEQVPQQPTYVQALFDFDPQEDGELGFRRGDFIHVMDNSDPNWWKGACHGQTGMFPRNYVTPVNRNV

c-Src SH2 = test: as above
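For SH2 binding enrichment of the phosphorylated peptide, bacterial display in this document: peptide library displayed on the E. coli surface as eCPX fusions, selected cells deep-sequenced, score is each peptide's frequency after selection divided by its frequency in the input.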
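For phosphorylation enrichment, bacterial display in this document: 11-residue human phosphosite peptides and single-mutation variants displayed on the E. coli surface, counted by deep sequencing, each peptide's frequency after selection divided by its frequency in the unselected input library; frequency after pTyr selection over input frequency; kinase dosed for 20-30% of maximal phosphorylation in three min.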

Sequence of Hck (P08631 whole entry, looked up): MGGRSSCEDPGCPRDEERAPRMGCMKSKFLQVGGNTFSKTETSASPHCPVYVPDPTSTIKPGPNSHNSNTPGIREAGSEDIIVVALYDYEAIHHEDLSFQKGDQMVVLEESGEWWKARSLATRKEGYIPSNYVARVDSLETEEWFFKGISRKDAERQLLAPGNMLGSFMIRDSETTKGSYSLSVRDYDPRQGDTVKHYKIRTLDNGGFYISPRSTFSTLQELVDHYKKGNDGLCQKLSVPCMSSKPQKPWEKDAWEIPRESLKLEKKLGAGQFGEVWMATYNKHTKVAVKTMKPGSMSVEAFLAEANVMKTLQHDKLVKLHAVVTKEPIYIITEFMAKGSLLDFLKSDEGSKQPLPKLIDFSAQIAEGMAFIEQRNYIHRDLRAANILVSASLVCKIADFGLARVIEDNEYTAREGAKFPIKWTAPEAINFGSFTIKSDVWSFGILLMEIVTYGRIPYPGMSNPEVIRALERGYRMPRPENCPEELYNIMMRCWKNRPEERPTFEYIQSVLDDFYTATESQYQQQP

Row | Sequence | phosphorylation enrichment (Hck) | phosphorylation enrichment (AncSZ) | phosphorylation enrichment (c-Abl (mouse)) | phosphorylation enrichment (FGFR3) | phosphorylation enrichment (Fer (mouse)) | phosphorylation enrichment (Fyn) | phosphorylation enrichment (Jak2) | phosphorylation enrichment (MERTK) | phosphorylation enrichment (FGFR1) | phosphorylation enrichment (EPHB1) | phosphorylation enrichment (c-Src) | phosphorylation enrichment (EPHB2) | phosphorylation enrichment (Fes) | SH2 binding enrichment (SHP2-C SH2) | SH2 binding enrichment (Grb2 SH2) | SH2 binding enrichment (c-Src SH2)
1 | HLQDEYDFKCK [STAT1_Y170_D165H] | 0.589 | 1.33 | 0.776 | 0.924 | 0.471 | 0.631 | 1.5 | 0.884 | 0.581 | 0.621 | 0.871 | 0.585 | 1.59 | 0.48 | 0.797 | 0.423
2 | TFAVSYLPDMS [FLNC_Y1602_T1599A_YF] | 0.5 | 0.939 | 0.61 | 0.816 | 0.439 | 0.466 | 0.741 | 0.441 | 0.5 | 0.598 | 0.378 | 0.392 | 1.21 | 1.01 | 0.905 | 0.566
3 | PRAEWYRDDLL [MYOM2_Y317_V321L] | 0.681 | 1.49 | 0.798 | 0.626 | 0.502 | 0.612 | 0.952 | 0.511 | 0.591 | 0.692 | 0.575 | 0.726 | 1.4 | 0.716 | 1.15 | 0.686
4 | PLRPDYQEPSR [DDR2_Y481] | 0.57 | 1.21 | 0.861 | 0.768 | 0.397 | 0.509 | 1.02 | 0.516 | 0.532 | 0.581 | 0.533 | 0.636 | 1.66 | 0.663 | 1.02 | 0.786
5 | QKLPSYILENN [VPS13B_Y2774] | 0.792 | 1.53 | 1.11 | 0.938 | 0.681 | 0.629 | 1.49 | 0.529 | 0.625 | 0.787 | 0.499 | 0.701 | 1.94 | 0.762 | 0.755 | 0.607
6 | RAHARYCADAC [ACOT4_Y52_R57C] | 0.45 | 0.601 | 0.889 | 0.395 | 0.518 | 0.344 | 0.61 | 0.437 | 0.436 | 0.402 | 0.41 | 0.499 | 0.677 | 0.898 | 0.915 | 0.872
7 | MKGDFYCFLAE [YWHAG_Y131_R132C_YF] | 0.695 | 1.32 | 0.971 | 1.5 | 0.644 | 0.456 | 1.29 | 2.81 | 1.02 | 1.18 | 0.592 | 0.88 | 1.58 | 0.742 | 0.725 | 0.54
8 | PPLMLYNPTTF [EGFR_Y270_YF] | 1.13 | 1.34 | 0.79 | 0.857 | 1.25 | 0.692 | 1.03 | 1 | 0.731 | 0.973 | 0.863 | 0.891 | 1.21 | 0.785 | 0.931 | 0.278
